Patent publication US20180000925

Biological target: recombinant HCV E2 protein (eEnzyme)

B1: CD45 (Enzo Life Sciences) (protein)
chain: SCNLDEQQELVERDDEKQLMNVEPIHADILLETYKRKIADEGRLFLAEFQSIPRVFSKFPIKEARKPFNQNKNRYVDILPYDYNRVELSEINGDAGSNYINASYIDGFKEPRKYIAAQGPRDETVDDFWRMIWEQKATVIVMVTRCEEGNRNKCAEYWPSMEEGTRAFGDVVVKINQHKRCPDYIIQKLNIVNKKEKATGREVTHIQFTSWPDHGVPEDPHLLLKLRRRVNAFSNFFSGPIVVHCSAGVGRTGTYIGIDAMLEGLEAENKVDVYGYVVKLRRQRCLMVQVEAQYILIHQALVEYNQFGETEVNLSELHPYLHNMKKRDPPSEPSPLEAEFQRLPSYRSWRTQHIGNQEENKSKNRNSNVIPYDYNRVPLKHELEMSKESEHDSDESSDDDSDSEEPSKYINASFIMSYWKPEVMIAAQGPLKETIGDFWQMIFQRKVKVIVMLTELKHGDQEICAQYWGEGKQTYGDIEVDLKDTDKSSTYTLRVFELRHSKRKDSRTVYQYQYTNWSVEQLPAEPKELISMIQVVKQKLPQKNSSEGNKHHKSTPLLIHCRDGSQQTGIFCALLNLLESAETEEVVDIFQVVKALRKARPGMVSTFEQYQFLYDVIASTYPAQNGQVKKNNHQEDKIEFDNEVDKVKQDANCVNPLGAPEKLPEAKEQAEGSEPTSGTEGPEHSVNGPASPALNQGS
B1 was tested, and the “dephosphorylation in an in vitro reaction (phosphotyrosine immunoblot)” value was “dephosphorylated by CD45”.
